Patent US20250163186A1 (PHYLAXIS BIOSCIENCE, published 2025)

B1: 33-2C4 (VHH)
VHH: EVQLLESGGGEVQPGGSLRLSCVASGLTFSSYNMGWLRQAPGKEREFVGLSGSSSTSTYYAESVKGRFTISRDNAKNTVYLQMTSLRAEDTAVYYCAARRLFSTYWSDRSWDFWGQGTLVTVEP
B2: 44C1 (VHH)
VHH: EVQLLESGGGEVQPGGSLRLSCVASGLTFSSYNMGWLRQAPGKEREFVGLSGSSSTSTYYAESVKGRFTISRDNAKNTVYLQMTSLRAEDTAVYYCAARRLLSTYWSDRSWDMWGQGTLVTVEP
B3: 44A11 (VHH)
VHH: EVQLLESGGGEVQPGGSLRLSCVASGLTFSSYNMGWLRQAPGKEREFVGLSGSSSTSTYYAESVKGRFTISRDNAKNTVYLQMTSLRAEDTAVYYCAARRLLSTYWSDRSWDKWGQGTLVTVEP
B4: 39C11 (VHH)
VHH: EVQLLESGGGEVQPGGSLRLSCVASGLTFSSYNMGWLRQAPGKEREFVGLSGSSSTSTYYAESVKGRFTISRDNAKNTVYLQMTSLRAEDTAVYYCAARRLLSTYWSMRSWDFWGQGTLVTVEP
B5: 35G3 (VHH)
VHH: EVQLLESGGGEVQPGGSLRLSCVASGLTFSSYNMGWLRQAPGKEREFVGLSGSSSTSTYYAESVKGRFTISRDNAKNTVYLQMTSLRAEDTAVYYCAARRLLSRYWSDRSWDFWGQGTLVTVEP
B6: 39E11 (VHH)
VHH: EVQLLESGGGEVQPGGSLRLSCVASGLTFSSYNMGWLRQAPGKEREFVGLSGSSSTSTYYAESVKGRFTISRDNAKNTVYLQMTSLRAEDTAVYYCAARRLLSTYWSHRSWDFWGQGTLVTVEP
B7: 33-2C5 (VHH)
VHH: EVQLLESGGGEVQPGGSLRLSCVASGLTFSSYNMGWLRQAPGKEREFVGLSGSSSTSTYYAESVKGRFTISRDNAKNTVYLQMTSLRAEDTAVYYCAARRLHSTYWSDRSWDFWGQGTLVTVEP

The binders below were run against T1, human IgE (human, UniProt P01854 1-428) (assay: ELISA, clone lysate on IgE-coated plate).
T1 construct: written under the same molecule; also called IgE (Abcam ab65866); soluble IgE
T1 sequence (P01854 other isoform, or with tags, fused parts or gaps limits assumed, form in doubt): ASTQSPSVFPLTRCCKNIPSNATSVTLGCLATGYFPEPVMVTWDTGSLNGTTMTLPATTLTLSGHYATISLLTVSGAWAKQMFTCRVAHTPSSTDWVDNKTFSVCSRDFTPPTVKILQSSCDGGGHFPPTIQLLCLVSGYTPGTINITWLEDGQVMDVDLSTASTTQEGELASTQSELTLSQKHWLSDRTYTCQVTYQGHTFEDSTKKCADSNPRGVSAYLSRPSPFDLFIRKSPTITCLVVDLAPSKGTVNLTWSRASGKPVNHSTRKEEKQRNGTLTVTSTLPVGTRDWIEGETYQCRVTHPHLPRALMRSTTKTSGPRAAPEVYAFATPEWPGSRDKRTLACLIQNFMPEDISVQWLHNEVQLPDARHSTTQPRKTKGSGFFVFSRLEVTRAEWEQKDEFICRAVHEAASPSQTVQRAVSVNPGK
Source text: Each amino acid in CDR1 (SEQ ID NO:3), CDR2 (SEQ ID NO:68), and CDR3 (SEQ ID NO:74) was randomly replaced such that the 20 natural amino acids would likely all have been sampled at every position. The expression vector for the VHH containing the mutagenized CDRs was then transfected into E. coli, and at least 96 clones were randomly chosen for each position mutated in each CDR. This gives likely coverage of all potential mutations at each position since the probability to get any given amino acid at that position is 5%. […] The heat maps represent the relative binding for each clone determined by the range of OD values from the ELISA background to WT CDR binding (FIGS. 16A-16C). Site numbering for each residue tested is indicated by the inset tables in FIGS. 16A-16C.

**Q.** With B1 as the binder, how does the “Confirm OD450 Duplicate1” value read?
**A.** 0.514

**Q.** And the “Confirm OD450 Duplicate2” value?
**A.** 0.523

**Q.** What about the “R1 Screening OD450” value of the same binder?
**A.** 1

**Q.** What does the source list for B2?
**A.** Confirm OD450 Duplicate1: 0.556; Confirm OD450 Duplicate2: 0.537; R1 Screening OD450: 1.06

**Q.** Which “Confirm OD450 Duplicate1” value does the source give for B3 here?
**A.** 0.661

**Q.** And the “Confirm OD450 Duplicate2” value?
**A.** 0.654

**Q.** And the “R1 Screening OD450” value?
**A.** 1.14

**Q.** What does the source list for B4?
**A.** Confirm OD450 Duplicate1: 0.562; Confirm OD450 Duplicate2: 0.585; R1 Screening OD450: 1

**Q.** How did the “Confirm OD450 Duplicate1” value turn out when B5 was run?
**A.** 0.593

**Q.** And the “Confirm OD450 Duplicate2” value?
**A.** 0.612

**Q.** What about the “R1 Screening OD450” value of the same binder?
**A.** 1.07

**Q.** How did the “Confirm OD450 Duplicate1” value turn out when B6 was run?
**A.** 0.55

**Q.** What about the “Confirm OD450 Duplicate2” value of the same binder?
**A.** 0.534

**Q.** What about the “R1 Screening OD450” value of the same binder?
**A.** 1.01

**Q.** How did the “Confirm OD450 Duplicate1” value turn out when B7 was run?
**A.** 0.525

**Q.** What about the “Confirm OD450 Duplicate2” value of the same binder?
**A.** 0.573

**Q.** And the “R1 Screening OD450” value?
**A.** 1.01
